Data from patent publication US20080220446A1, “Method for Detecting and/or Removing Protein and/or Peptide Comprising a Cross-Beta Structure From an Aqueous Solution Comprising a Protein” (priority 2005, published 2008).

T1: tPA F-EGF (Homo sapiens, UniProt P00750)
T1 construct: made in house; host or cells: HEK293E
T1 sequence (P00750 36-120 limits assumed): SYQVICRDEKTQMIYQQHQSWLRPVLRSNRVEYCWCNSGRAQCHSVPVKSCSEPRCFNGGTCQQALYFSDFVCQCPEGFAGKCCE


Tests used:
fibronectin F4,5 = biological target: T2, fibronectin F4,5 (Homo sapiens, UniProt P02751); assay: Affinity determination ELISA, fibronectin F4,5 on coated (mis)folded proteins; format: binding; details: coated protein as labelled
T2 construct: human fibronectin finger 4,5 (Fn F4,5) fragment; made in house; host or cells: HEK293E
Description: (§1) Synthetic genes of human BiP, human fibronectin finger 4,5 (Fn F4,5) fragment, and human tissue-type plasminogen activator finger EGF (tPA F-EGF) fragment were ordered from Geneart (Regensburg, Germany). These DNA constructs were digested using BamHI and NotI, and ligated into vector pABC674 (ABC-expression facility, Utrecht University, The Netherlands), which contains a carboxy-terminal FLAG-tag—His-tag. HEK293E cells were transiently transfected with these constructs using the polyethylene-imine method, and grown for 5-6 days.
(§2) Denatured proteins and their native controls BSA (Sigma, A7906), glycated BSA, Hb (Sigma, H7605), glycated Hb, ovalbumin (Sigma, A6741), heat-denatured misfolded ovalbumin, human γ-globulins (Sigma, G4386), heat-denatured misfolded γ-globulins, alkyl-γ-globulins, lysozyme (ICN Biochemicals, 100831) and alkyl-lysozyme were coated on ELISA plates (Greiner Microlon high-binding, 655092) in 50 mM NaHCO3-buffer pH 9.6. The plates were blocked using Blocking reagent (Roche 1112589). […] Bound protein is detected by the FLAG-tag using 1:3000 anti-FLAG-HRP (Sigma A-8592) in PBS-T, or by 1:1000 Ni-NTA-HRP (Qiagen 34530) in PBS-T. The HRP reaction Is performed using the TMB substrate (Biosource 4501103 or Tebu Bio 101TMB100-500), stopped using 10% H2SO4 and absorbance was measured at 450 nm.

[1] = Thioflavin T fluorescence of protein solutions; format: physicochemical; details: conclusion from ThT fluorescence, Plg-activation assay and TEM
Experimental: (§3) Fluorescence of ThT—protein/peptide adducts was measured as follows. […] Fluorescence was measured at 485 nm upon excitation at 435 nm. Background signals from buffer, buffer with ThT and protein/peptide solution without ThT were subtracted from corresponding measurements with protein solution incubated with ThT. Regularly, fluorescence of Aβ was used as a positive control, and fluorescence of FP10, a non-amyloid fibrin fragment^16, was used as a negative control. Fluorescence was measured in triplicate on a Hitachi F-4500 fluorescence spectrophotometer (Ltd., Tokyo, Japan).
Formulated protein therapeutics were obtained from the local hospital pharmacy and were used as supplied by the manufacturers. […] Lyophilized therapeutics were dissolved according to the manufacturers recommendations. GH, zinc-insulin, Cealb and gelatin were stored at −20, 4, room temperature, 37 and 65° C. Other protein therapeutics were only kept at 4° C., and assayed for the presence of cross-β structure at shown time points. Enhancement in fluorescence of ThT and Congo red was measured with all formulated protein therapeutics. […]
ThT fluorescence of β2GPI was measured as follows. […] In the ThT fluorescence assay, fluorescence of β2GPI in buffer, of CL or DXS500k in buffer, of buffer and ThT alone, and of β2GPI-CL adducts and β2GPI-DXS500k adducts, with or without ThT, was recorded as described above (section ThT fluorescence). In addition, TEM images were recorded with CL, β2GPI from human plasma, with or without CL, and with recombinant β2GPI, as described^5.
To prepare structurally altered ovalbumin (OVA) with amyloid cross-β structures, purified OVA (Sigma, A-7641, lot 071k7094) was heated to 85° C. […] Native OVA (nOVA) and heat-denatured OVA (dOVA) were tested in the ThT fluorescence assay and in the Plg-activation assay. In the fluorescence assay and in the Plg-activation assay, 25 and 100 μg ml^−1 nOVA and dOVA were tested, respectively. […]
MSA (#126674, Calbiochem) was dissolved in 8 M urea, 100 mM Tris-HCl pH 8.2, at 10 mg ml^−1 final concentration. […] The presence of aggregates or fibrils was analyzed using TEM. […]

tPA F-EGF = biological target: T1, tPA F-EGF; assay: Affinity determination ELISA, tPA F-EGF on coated (mis)folded proteins; format: binding; details: coated protein as labelled, relative to native control
Description: as §1, §2

tPA = tPA (Homo sapiens, UniProt P00750); assay: tPA/plasminogen activation assay; format: biochemical; details: β2gpi exposed to cardiolipin or alkylated, 100 μg/ml
Experimental: β2-GPI was reduced and alkylated as follows. Sixhundredforty μl of β2-GPI stock was mixed with 640 μl of 8 M Urea (cooled solution) in 0.1 M Tris pH-8.2. The solution was degassed with N2 gas for approximately 6 minutes. From a 1 M DTT stock 12.8 μl was added to the solution, mixed and incubated for 3 hours at room temperature. A 1 M Iodoacetamide (Sigma; I-6125) was prepared, of which 25.6 μl was added to the β2-GPI reaction mixture. The solution was subsequently dialysed against PBS. […] Signals obtained with alkyl-β2gpi are compared with those obtained with native β2gpi starting material and with positive control acid/heat denatured amyloid-like misfolded γ-globulins.
Exiqon Peptide Immobilizer plates were blocked for 1 hour with PBS, 1% Tween20 and rinsed twice with distilled water. The conversion of the chromogenic substrate S-2251 (Chromogenix, Italy) by plasmin was kinetically measured at 37° C. on a Spectramax340 microplate reader at a wavelength of 405 nm. […] Denatured γ-globulins (100 μg/ml) with amyloid-like structure was used as reference and positive control. Lyophilized γ-globulins (Sigma, Mo., USA) were dissolved in a 1(:)1 volume ratio of 1,1,1,3,3,3-hexafluoro-2-propanol and trifluoro-acetic acid and subsequently dried under air. […]
(§4) Protein therapeutics were obtained from the local hospital pharmacy and analyzed within the expiry limits as stated by the manufacturers.

[2] = ThT fluorescence enhancement by biopharmaceuticals; format: physicochemical; details: after alkylation of cysteine residues
Experimental: as §3
β2-GPI was reduced and alkylated as follows. Sixhundredforty μl of β2-GPI stock was mixed with 640 μl of 8 M Urea (cooled solution) in 0.1 M Tris pH-8.2. […]
as §4
Fluorescence of Thioflavin T (ThT; Sigma T-3516, St. Louis, Mo., USA) and Congo red (CR; Aldrich Chemical Company Inc., Milwaukee, Wis., USA) was measured on a Hitachi F-4500 spectrophotometer at an excitation wavelength of 435 nm and emission wavelength of 485 nm for ThT and an excitation wavelength of 550 nm and emission wavelength of 595 nm for Congo red. […] Fluorescence was measured in triplicate. Background fluorescence of both protein in buffer and dye-solution were subtracted from the total fluorescence signal. […]

Chain of tPA (P00750 36-562): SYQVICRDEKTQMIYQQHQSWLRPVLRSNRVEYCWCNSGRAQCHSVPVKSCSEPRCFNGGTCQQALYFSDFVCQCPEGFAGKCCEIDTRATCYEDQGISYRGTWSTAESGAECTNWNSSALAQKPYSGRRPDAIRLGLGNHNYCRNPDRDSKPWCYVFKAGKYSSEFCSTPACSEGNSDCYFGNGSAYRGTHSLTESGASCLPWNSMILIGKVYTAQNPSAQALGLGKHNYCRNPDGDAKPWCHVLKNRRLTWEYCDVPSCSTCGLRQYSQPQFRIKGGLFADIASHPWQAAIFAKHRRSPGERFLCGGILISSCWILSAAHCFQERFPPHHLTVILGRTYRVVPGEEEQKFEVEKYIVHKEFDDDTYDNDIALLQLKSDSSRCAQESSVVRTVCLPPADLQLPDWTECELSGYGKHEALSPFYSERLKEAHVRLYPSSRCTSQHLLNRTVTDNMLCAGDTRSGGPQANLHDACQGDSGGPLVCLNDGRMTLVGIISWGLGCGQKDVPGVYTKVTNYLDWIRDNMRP
T2 sequence (P02751 182-276 limits assumed): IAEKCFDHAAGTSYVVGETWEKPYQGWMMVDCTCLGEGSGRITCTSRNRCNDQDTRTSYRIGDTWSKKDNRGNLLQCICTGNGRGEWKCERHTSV

affinity for fibronectin F4,5 (fibronectin F4,5) | binding of tPA F-EGF (tPA F-EGF) | ability to activate tPA/plasminogen (tPA) | Molecule | presence of cross-β structure conformation [1] | Thioflavin T fluorescence [2]
clear difference in binding affinity | Much lower binding |  | heat-denatured OVA: ovalbumin heated to 85° C. (protein) GSIGAASMEFCFDVFKELKVHHANENIFYCPIAIMSALAMVYLGAKDSTRTQINKVVRFDKLPGFGDSIEAQCGTSVNVHSSLRDILNQITKPNDVYSFSLASRLYAEERYPILPEYLQCVKELYRGGLEPINFQTAADQARELINSWVESQTNGIIRNVLQPSSVDSQTAMVLVNAIVFKGLWEKAFKDEDTQAMPFRVTEQESKPVQMMYQIGLFRVASMASEKMKILELPFASGTMSMLVLLPDEVSGLEQLESIINFEKLTEWTSSNVMEERKIKVYLPRMKMEEKYNLTSVLMAMGITDVFSSSANLSGISSAESLKISQAVHAAHAEINEAGREVVGSAEAGVDAASVSEEFRADHPFLFCIKHIATNAVLFFGRCVSP | comprise the cross-β structure conformation | 
 |  | amyloid-like properties | alkyl-β2gpi: reduced and alkylated β2-glycoprotein I (protein) GRTCPKPDDLPFSTVVPLKTFYEPGEEITYSCKPGYVSRGGMRKFICPLTGLWPINTLKCTPRVCPFAGILENGAVRYTTFEYPNTISFSCNTGFYLNGADSAKCTEEGKWSPELPVCAPIICPPPSIPTFATLRVYKPSAGNNSLYRDTAVFECLPQHAMFGNDTITCTTHGNWTKLPECREVKCPFPSRPDNGFVNYPAKPTLYYKDKATFGCHDGYSLDGPEEIECTKLGNWSAMPSCKASCKVPVKKATVVYQGERVKIQEKFKNGMLHGDKVSFFCKNKEKKCSYTEDAQCIDGTIEVPKCFKEHSSLAFWKTDASDVKPC |  | enhanced Thioflavin T fluorescence
